Measured values from patent US20240374747A1, “FUSION PROTEIN OF VHH ANTIBODY AND STREPTAVIDIN MUTANT” (The University of Tokyo, priority 2023, published 2024).
Like-named read-outs stand apart in the source and are kept apart here.

Legend:
[1] = system: Her2-positive cells (KPL-4); assay type: cell-based
Protocol: Her2-positive cells (KPL-4) were seeded on a 96-well plate to result in a cell count of 1×10^3 cells/well and a culture solution amount of 50 μL/well and were then cultured overnight. […] After the dilution series had been prepared, 50μ of the complex was each added to the cells, and the cells are cultured for 6 to 7 days. […] A reagent was added in accordance with the dosage and administration described in the instruction manual, and the resulting cells were then incubated at 37° C. in a CO2 incubator for 1.5 hours. After that, the absorbance at 450 nm was measured, and the mean value was then calculated, followed by background correction. Thereafter, the control was set at 100%, and the cell proliferation percentage to the control under individual conditions was calculated.

[2] = pH conditions of dialysis buffer for tetramer formation (non-reducing electrophoresis, densitometry); assay type: physicochemical
Protocol: Then, the sample was put into dialysis tube and dialyzed with buffers (50 mM sodium phosphate, 400 mM arginine HCl, pH 4.0˜8.0). 100 μL of the sample after refolding was dialyzed at 25° C. for 1 hour using 30 mL of buffer and the Mini Dialysis Kit 1 kD (Cytiva). Thereafter, dialysis was performed at 4° C. for 18 hours with 30 mL of fresh buffer, followed by overnight dialysis at 4° C. with 30 mL of fresh buffer. The post-dialysis samples from each pH condition were analyzed by non-reducing electrophoresis and the result image was shown in FIG. 7. […] As shown in FIG. 7 and Table 2, the monomers were equal to or less than 8% and the tetramers were equal to or more than 92% in pH of 6.0 or less, whereas the percentage of monomers increased at a pH of 6.5 or more. At pH 8.0, the same as the pH of refolding buffer B, 81% of the monomers and 19% of the tetramers were present. […] The theoretical pIs of Anti-HER2 VHH and Cupid moieties were approximately 7.6 and 6.5, respectively. Therefore, it is preferable that a buffer for tetramer formation should be pH 6.0 or less to avoid aggregation induced by the Cupid moiety.

[3] = SPR analysis of interaction between Anti-HER2 VHH-Cupid and Psyche-Duocarmycin (Biacore T200); assay type: binding
Protocol: The surface plasmon resonance (SPR) analysis was performed using a Biacore T200 (Cytiva). […] The association and dissociation rate constants were evaluated using Biacore T200 Evaluation Software version 3 (Cytiva) by bivalent analyte model, and KD values were calculated.

[4] = system: Her2-positive cells (KPL-4)
Protocol: Her2-positive cells (KPL-4) were seeded on a 96-well plate to result in a cell count of 1×10^4 cells/well and a culture solution amount of 50 μL/well and were then cultured overnight. […] A reagent was added in accordance with the dosage and administration described in the instruction manual, and the resulting cells were then incubated at 37° C. in a CO2 incubator for 1.5 hours. […] Thereafter, the control was set at 100%, and the cell proliferation percentage to the control under individual conditions was calculated.

[5] = pH conditions of dialysis buffer for tetramer formation (non-reducing electrophoresis, densitometry); assay type: physicochemical; conditions: dialyzed with refolding buffer B (pH 8.0) to remove guanidine hydrochloride

B1: Anti-HER2 VHH-Cupid: fusion protein of an anti-HER2 VHH single-domain antibody (SEQ ID NO: 2), Gly-Ser linker and Cupid mutant streptavidin; forms a tetramer (protein)
chain: MQVQLQESGGGSVQAGGSLKLTCAASGYIFNSCGMGWYRQSPGRERELVSRISGDGDTWHKESVKGRFTISQDNVKKTLYLQMNSLKPEDTAVYFCAVCYNLETYWGQGTQVTVSSGGGGSGGGGSGGGGSAEAGITGTWSDQLGDTFIVTAGADGALTGTYENAVGGAESRYVLTGRYDSAPATDGSGTALGWTVAWKNNSKNAHSATTWSGQYVGGADAKINTQWLLTSGTTNANAWKSTLVGHDTFTKVKPSAASHHHHHH
modifications: tetramer
notes: forms a tetramer
cytotoxic activity compared with FL2 as vector [1]: stronger cytotoxic activity than FL2
Monomer band (%) ([2]; dialysis buffer pH 4.0): 4%
Tetramer band (%) ([2]; dialysis buffer pH 4.0): 96%
Monomer band (%) ([2]; dialysis buffer pH 5.0): 6%
Tetramer band (%) ([2]; dialysis buffer pH 5.0): 94%
Monomer band (%) ([2]; dialysis buffer pH 5.5): 8%
Tetramer band (%) ([2]; dialysis buffer pH 5.5): 92%
Monomer band (%) ([2]; dialysis buffer pH 6.0): 8%
Tetramer band (%) ([2]; dialysis buffer pH 6.0): 92%
Monomer band (%) ([2]; dialysis buffer pH 6.5): 13%
Tetramer band (%) ([2]; dialysis buffer pH 6.5): 87%
Monomer band (%) ([2]; dialysis buffer pH 7.0): 35%
Tetramer band (%) ([2]; dialysis buffer pH 7.0): 65%
Monomer band (%) ([2]; dialysis buffer pH 7.5): 77%
Tetramer band (%) ([2]; dialysis buffer pH 7.5): 23%
Monomer band (%) ([2]; dialysis buffer pH 8.0): 81%
Tetramer band (%) ([2]; dialysis buffer pH 8.0): 19%
tetramer formation of the refolded sample ([2]; dialysis buffers pH 4.0-8.0, FIG. 7): formed tetramers in pH-dependent manner
percentage of monomers ([2]; pH of 6.0 or less): ≤ 8%
percentage of tetramers ([2]; pH of 6.0 or less): ≥ 92%
association rate constant (Ka1) ([3]; Anti-HER2 VHH-Cupid captured via anti-histidine antibody, Psyche-Duocarmycin analyte 10 nM to 0.3125 nM, bivalent analyte model): 1.336×10^4 l/Ms
binding activity to Psyche-Duocarmycin ([3]; SPR): had binding activity to Psyche-Duocarmycin
cytotoxic activity compared with FL2 as vector [4]: stronger cytotoxic activity than FL2
oligomeric state after dialysis with refolding buffer B [5]: almost all of the Anti-HER2 VHH-Cupid were monomeric
